# B1: RCP-11: recombinant polypeptide for culture, SEQ ID NO: 25; vitronectin positions 1-55, 269-277, 295-341, 342-373, C274S (protein)
# chain: MDQESCKGRCTEGFNVDKKCQCDELCSYYQSCCTDYTAECKPQVTRGDVFTMPEDESQEESEGSEDIFELLFWGRTSAGTRQPQFISRDWHGVPGQVDAAMAGRIYISGMAPRPSLAKKQRFRHRNRKGYRSQRGHSRGRNQN
# modifications: Vitronectin-derived Recombinant Protein (RCP-11)
# notes: vitronectin positions 1-55, 269-277, 295-341, 342-373, C274S
# B2: RCP-1: recombinant polypeptide for culture, SEQ ID NO: 15; human vitronectin positions 1-55 and 269-459 with N-terminal methionine (protein)
# chain: MDQESCKGRCTEGFNVDKKCQCDELCSYYQSCCTDYTAECKPQVTRGDVFTMPEDEPSQEECEGSSLSAVFEHFAMMQRDSWEDIFELLFWGRTSAGTRQPQFISRDWHGVPGQVDAAMAGRIYISGMAPRPSLAKKQRFRHRNRKGYRSQRGHSRGRNQNSRRPSRATWLSLFSSEESNLGANNYDDYRMDWLVPATCEPIQSVFFFSGDKYYRVNLRTRRVDTVDPPYPRSIAQYWLGCPAPGHL
# modifications: Vitronectin-derived Recombinant Protein (RCP-1)
# Experiments:
# iPS cells = test: Cell growth property evaluation 2 (2-mercaptoethanol concentration in Essential 8); format: cell-based, human; details: RCP-11 100 μg/ml, 72 hours
# Experimental: A cell culture surface coated with RCP-11 was prepared in the same manner as in <Cell growth property evaluation 1> of Example 1. iPS cells collected in the same manner as in <Cell growth property evaluation 1> were suspended in the respective media composed as shown in Table 12 and seeded into wells at a cell density of 10,000 cells/well. After the cells were cultured for 72 hours, the number of cells were quantified in the same manner as in <Cell growth property evaluation 1>, and the cell growth properties were evaluated based on a cell growth rate which is a ratio calculated by regarding the number of cells cultured using RPC-11 as being 100%.
# [1] = Evaluation of adsorbability with respect to cell culture surface (OPA fluorescence); format: physicochemical; details: FIG. 1; 0 to 200 pmol/cm^2 added, 2 hours at 37° C., washed twice with PBS
# Experimental: Each of the polypeptides of RCP-1 to RCP-11 and RCP-21 to RCP-26 obtained as above was diluted with a predetermined buffer such that they could be added to wells at a predetermined final concentration of 0 pmol/cm^2 to 200 pmol/cm^2. Thereafter, each of the polypeptides was added in an amount of 64 μL to a plasma-treated 96-well plate made of polystyrene (Tissue Culture-Treated, Falcon). Each of the polypeptides was allowed to adsorb onto the plate by being incubated for 2 hours at 37° C., and then the wells were washed twice with PBS, thereby obtaining surfaces coated with each of the polypeptides of RCP-1 to RCP-11 and RCP-21 to RCP-26.
# Among the surfaces coated with each of the polypeptides obtained as above, the surfaces coated with RCP-1 and RCP-21 to RCP-26 were applied with 64 μL of a borate buffer and 64 μL of 1 N NaOH, followed by incubation for 24 hours at 80° C. and 100% humidity. After the resultant was air-cooled, 75 μL of a borate buffer was added to each well, and 50 μL of a reaction solution obtained by mixing OPA (o-phthalaldehyde: Wako Pure Chemical Industries, Ltd./methanol solution (160 mg/ml)) with N-acetyl-L-cysteine (NAC: Wako Pure Chemical Industries, Ltd.)/borate buffer solution (2 mg/ml) at a ratio of 1:100 (mass ratio) was further added thereto. After incubation for 30 minutes at 40° C., the fluorescence intensity thereof was measured by using an Envision Multilabel Counter (PerkinElmer Inc.) (excitation 355 nm/fluorescence 486 nm). A calibration curve was separately prepared from each of the polypeptide solutions so as to calculate the amount of the polypeptide adsorbed. In FIG. 1, a black rhombus indicates RCP-1, a black square indicates RCP-21, a black triangle indicates RCP-22, a black circle indicates RCP-23, a white rhombus indicates RCP-24, a white square indicates RCP-25, and a white triangle indicates RCP-26.
Molecule,"Cell growth rate (iPS cells; Essential8, 2-mercaptoethanol 0, 10,000 cells/well, this = 100%) [%]","Cell growth rate (iPS cells; Essential8, 2-mercaptoethanol 10 μM (0.0000078% by mass)) [%]","Cell growth rate (iPS cells; Essential8, 2-mercaptoethanol 10 μM (0.000078% by mass)) [%]","Cell growth rate (iPS cells; Essential8, 2-mercaptoethanol 100 μM (0.00078% by mass)) [%]","Cell growth rate (iPS cells; Essential8, 2-mercaptoethanol 1 mM (0.0078% by mass)) [%]","Cell growth rate (iPS cells; Essential8, 2-mercaptoethanol 10 mM (0.078% by mass)) [%]",adsorbability with respect to the plate [1]
B1,100,104.1,97.3,49.2,38.7,40.2,
B2,,,,,,,excellent adsorbability

# Reference: patent publication US10487307B2, “Culture method for pluripotent stem cells” (FUJIFILM CORPORATION, priority 2013, dated 2019)
